Test results from IntAct's records for PubMed 21224891.

B1: X-linked retinitis pigmentosa GTPase regulator-interacting protein 1 (Homo sapiens), Q96KN7 (parent)
chain: MSHLVDPTSGDLPVRDIDAIPLVLPASKGKNMKTQPPLSRMNREELEDSFFRLREDHMLVKELSWKQQDEIKRLRTTLLRLTAAGRDLRVAEEAAPLSETARRGQKAGWRQRLSMHQRPQMHRLQGHFHCVGPASPRRAQPRVQVGHRQLHTAGAPVPEKPKRGPRDRLSYTAPPSFKEHATNENRGEVASKPSELVSGSNSIISFSSVISMAKPIGLCMPNSAHIMASNTMQVEEPPKSPEKMWPKDENFEQRSSLECAQKAAELRASIKEKVELIRLKKLLHERNASLVMTKAQLTEVQEAYETLLQKNQGILSAAHEALLKQVNELRAELKEESKKAVSLKSQLEDVSILQMTLKEFQERVEDLEKERKLLNDNYDKLLESMLDSSDSSSQPHWSNELIAEQLQQQVSQLQDQLDAELEDKRKVLLELSREKAQNEDLKLEVTNILQKHKQEVELLQNAATISQPPDRQSEPATHPAVLQENTQIEPSEPKNQEEKKLSQVLNELQVSHAETTLELEKTRDMLILQRKINVCYQEELEAMMTKADNDNRDHKEKLERLTRLLDLKNNRIKQLEGILRSHDLPTSEQLKDVAYGTRPLSLCLETLPAHGDEDKVDISLLHQGENLFELHIHQAFLTSAALAQAGDTQPTTFCTYSFYDFETHCTPLSVGPQPLYDFTSQYVMETDSLFLHYLQEASARLDIHQAMASEHSTLAAGWICFDRVLETVEKVHGLATLIGAGGEEFGVLEYWMRLRFPIKPSLQACNKRKKAQVYLSTDVLGGRKAQEEEFRSESWEPQNELWIEITKCCGLRSRWLGTQPSPYAVYRFFTFSDHDTAIIPASNNPYFRDQARFPVLVTSDLDHYLRREALSIHVFDDEDLEPGSYLGRARVPLLPLAKNESIKGDFNLTDPAEKPNGSIQVQLDWKFPYIPPESFLKPEAQTKGKDTKDSSKISSEEEKASFPSQDQMASPEVPIEAGQYRSKRKPPHGGERKEKEHQVVSYSRRKHGKRIGVQGKNRMEYLSLNILNGNTPEQVNYTEWKFSETNSFIGDGFKNQHEEEEMTLSHSALKQKEPLHPVNDKESSEQGSEVSEAQTTDSDDVIVPPMSQKYPKADSEKMCIEIVSLAFYPEAEVMSDENIKQVYVEYKFYDLPLSETETPVSLRKPRAGEEIHFHFSKVIDLDPQEQQGRRRFLFDMLNGQDPDQGHLKFTVVSDPLDEEKKECEEVGYAYLQLWQILESGRDILEQELDIVSPEDLATPIGRLKVSLQAAAVLHAIYKEMTEDLFS
partner: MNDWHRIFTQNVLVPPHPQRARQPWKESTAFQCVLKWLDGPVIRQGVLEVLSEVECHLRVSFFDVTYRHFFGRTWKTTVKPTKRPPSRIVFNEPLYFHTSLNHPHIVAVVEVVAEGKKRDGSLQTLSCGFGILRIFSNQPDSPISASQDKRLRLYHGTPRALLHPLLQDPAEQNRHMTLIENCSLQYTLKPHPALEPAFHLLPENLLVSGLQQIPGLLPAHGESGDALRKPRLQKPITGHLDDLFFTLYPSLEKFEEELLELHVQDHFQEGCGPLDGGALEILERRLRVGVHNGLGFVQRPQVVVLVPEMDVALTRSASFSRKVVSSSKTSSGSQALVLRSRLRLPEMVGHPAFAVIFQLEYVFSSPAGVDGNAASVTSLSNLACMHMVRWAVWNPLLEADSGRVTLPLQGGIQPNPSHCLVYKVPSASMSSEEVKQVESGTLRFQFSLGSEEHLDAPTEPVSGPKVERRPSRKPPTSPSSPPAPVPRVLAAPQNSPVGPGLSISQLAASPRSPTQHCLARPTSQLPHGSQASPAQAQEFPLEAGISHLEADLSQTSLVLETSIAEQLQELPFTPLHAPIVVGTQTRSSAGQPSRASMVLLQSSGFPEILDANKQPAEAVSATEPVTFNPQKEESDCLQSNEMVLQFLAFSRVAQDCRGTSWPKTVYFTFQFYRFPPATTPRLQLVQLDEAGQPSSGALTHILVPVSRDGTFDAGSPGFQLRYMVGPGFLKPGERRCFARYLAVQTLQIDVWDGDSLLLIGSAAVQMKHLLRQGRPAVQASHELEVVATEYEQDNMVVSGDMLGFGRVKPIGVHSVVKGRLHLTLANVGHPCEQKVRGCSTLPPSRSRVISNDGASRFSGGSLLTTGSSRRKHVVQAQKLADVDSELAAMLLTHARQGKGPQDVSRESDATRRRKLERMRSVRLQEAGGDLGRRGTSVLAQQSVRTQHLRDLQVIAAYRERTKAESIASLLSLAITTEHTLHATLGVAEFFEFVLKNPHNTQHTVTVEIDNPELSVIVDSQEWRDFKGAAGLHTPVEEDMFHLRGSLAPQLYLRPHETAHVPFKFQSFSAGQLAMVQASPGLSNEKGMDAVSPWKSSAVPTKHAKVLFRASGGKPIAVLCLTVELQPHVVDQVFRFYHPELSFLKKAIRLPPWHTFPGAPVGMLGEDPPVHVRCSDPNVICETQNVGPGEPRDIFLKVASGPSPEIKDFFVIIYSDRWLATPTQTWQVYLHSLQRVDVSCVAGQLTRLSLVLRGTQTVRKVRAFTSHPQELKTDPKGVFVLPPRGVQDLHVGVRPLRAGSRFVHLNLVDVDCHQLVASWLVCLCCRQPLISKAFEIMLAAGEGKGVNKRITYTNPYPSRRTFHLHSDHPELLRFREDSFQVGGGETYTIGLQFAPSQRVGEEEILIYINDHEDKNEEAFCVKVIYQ

Variants of: B1
Conditions: with nphp4_human NPHP4, O75161

| Variant | effect of a mutation on the interaction |
| --- | --- |
| Q589H | with no effect |
| A764V | with no effect |
| T806I | decreasing interaction strength |
| I838V | decreasing interaction strength |
| R812H | increasing interaction strength |
| A635G | decreasing interaction strength |
| A837G | decreasing interaction strength |
| R598Q | decreasing interaction strength |

Variants of: B1
Conditions: with nphp4_human NPHP4, O75161
Remark: another data set of the same source

| Variant | effect of a mutation on the interaction |
| --- | --- |
| R598Q | disrupting interaction strength |
